We go through two molecules from paper PMC4416881, “Regulation of Active DNA Demethylation by a Methyl-CpG-Binding Domain Protein in Arabidopsis thaliana” (PLoS Genetics, 2015).

To fix the notation:
B1: MBP-IDM2 (natural protein, Arabidopsis thaliana, UniProt Q8RWL4 1-349, looked up)
chain: MSDTMPEIVSPLVAENSQEQEESVLISLDIEEDKLFLLHFIIGTYFGPDLRKQHHRPKQSAFQIQALKNVVVDELSGSLMKRAELERVYYHIIRNVDPSLVMKPKKLREYFNAKRNDSNRDYPLFVDLFPRKLHPETHVRHKFKFIRSIVFINDPDTSCMREECVARFKRLTGLDSFALSLSVDVTKSNGVVAANEVKVEIDESVEPVKEDNAGTCTSGEESDVAAKPEVKSEAHGGLMVGLMDIGECDDAYLFRVSLPGVKRDERYFSCEVEDNGKVLVRGVTTTGGKRVKRYSHVFEMQTRSLCPPGNFSVSFRLPGPVHPHEFSGNFGTDGILEGVVMKNLQKQTV
notes: IDM2, Arabidopsis thaliana, AT1G54840; source: E. coli, fixed to an amylose resin; not shown: MBP, N-terminal, kept

Common to all, as to test: pull-down; MBP fusion from E. coli fixed to amylose resin, incubated with His-tagged protein purified from E. coli; immunoblot against His6 tag
Conditions in all cases: both partners purified

In one experiment the target is T1, His-IDL1 (Arabidopsis thaliana, UniProt Q9SYQ0 1-463).
T1 construct: IDL1, Arabidopsis thaliana, AT1G20870; detected with antibodies against the His6 tag; also called His-tagged IDL1; source: E. coli, purified; not shown: His6, N-terminal, kept
T1 sequence (looked up): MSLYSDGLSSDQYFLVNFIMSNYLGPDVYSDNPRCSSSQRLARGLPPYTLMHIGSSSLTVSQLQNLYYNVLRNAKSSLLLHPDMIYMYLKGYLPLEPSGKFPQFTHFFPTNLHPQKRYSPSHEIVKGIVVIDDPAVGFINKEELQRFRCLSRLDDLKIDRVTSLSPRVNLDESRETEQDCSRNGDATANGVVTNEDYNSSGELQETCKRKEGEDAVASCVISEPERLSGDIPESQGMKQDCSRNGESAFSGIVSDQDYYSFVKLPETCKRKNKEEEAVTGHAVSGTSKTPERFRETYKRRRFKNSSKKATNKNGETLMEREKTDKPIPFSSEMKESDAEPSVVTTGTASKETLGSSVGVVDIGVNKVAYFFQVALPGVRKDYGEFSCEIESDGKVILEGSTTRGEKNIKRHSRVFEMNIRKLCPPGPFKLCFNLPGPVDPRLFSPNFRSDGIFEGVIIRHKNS

The target of another experiment is T2, MBP-IDL1 (Arabidopsis thaliana, UniProt Q9SYQ0 1-463).
T2 construct: IDL1, Arabidopsis thaliana, AT1G20870; source: E. coli, fixed to an amylose resin; not shown: MBP, N-terminal, kept
T2 sequence (looked up): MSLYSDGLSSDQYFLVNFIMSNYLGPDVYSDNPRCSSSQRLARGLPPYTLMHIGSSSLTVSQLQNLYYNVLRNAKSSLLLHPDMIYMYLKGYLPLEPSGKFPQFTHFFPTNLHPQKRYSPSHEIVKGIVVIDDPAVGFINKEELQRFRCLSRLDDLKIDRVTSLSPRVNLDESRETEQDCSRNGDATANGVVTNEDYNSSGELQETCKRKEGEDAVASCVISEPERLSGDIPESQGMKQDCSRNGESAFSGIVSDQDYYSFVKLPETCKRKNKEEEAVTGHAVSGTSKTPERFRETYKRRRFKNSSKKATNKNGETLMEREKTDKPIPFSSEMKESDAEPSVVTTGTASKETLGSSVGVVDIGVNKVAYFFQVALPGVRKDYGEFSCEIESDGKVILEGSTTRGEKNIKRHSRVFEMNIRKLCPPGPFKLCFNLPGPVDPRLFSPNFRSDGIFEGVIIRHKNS

The experiment “MBP-IDM2” concerns the target B1.

As to B1, the binding result in the experiment with His-IDL1 is “binds”.

B2: His-MBD7 (natural protein, Arabidopsis thaliana, UniProt Q9FJF4 1-306, looked up)
chain: MQTRSSSSPSANHRRETQLQIADPTSFCGKIMPGWTVVNRPRSSNNGVVDTYFIEPGTGRQFSSLEAIHRHLAGEVNDRRLTRAGSFFQDKTRVYEGSRTKQDHCGVEYASKGFRLPRGWSVEEVPRKNSHYIDKYYVERKTGKRFRSLVSVERYLRESRNSIEQQLRVLQNRRGHSKDFRLPDGWIVEEKPRRSSSHIDRSYIEPGTGNKFRSMAAVERYLISVGNITLDSVSMVHSERLPLLMNRNGIRFQSEVIDPNPPKKVKWVLTGSGGNMFTANVRGSNVSSLVKHTWSEAFVSLIEDRS
notes: MBD7, Arabidopsis thaliana, AT5G59800; detected with antibodies against the His6 tag; also called His-tagged MBD7; source: E. coli, purified; not shown: His6, N-terminal, kept
In the case of B2, the binding result in the experiment with MBP-IDL1 and with MBP-IDM2 was “binds” each time.
